According to the supplement of paper PMC5998384:

Assays:
HeLa Kyoto [1] = assay: thermal stability score vs G1/S (z-score of summed log2 fold changes over temperatures); higher = more thermally stable than in G1/S
HeLa Kyoto [2] = assay: solubility change mitosis vs G1/S (difference of NP-40 vs SDS log2 ratios) (log2 ratio difference); higher = more soluble in mitosis
HeLa Kyoto [3] = assay: melting temperature (median over replicates), in situ; higher = more thermally stable
HeLa Kyoto [4] = assay: solubility in G1/S (NP-40 vs SDS abundance) (log2 ratio); higher = more soluble; conditions: cell cycle stage: G1/S
[5] = cell cycle stage: early G1 (4.5 h after nocodazole release)
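Wherever melting temperature (median over replicates), in situ is given: HeLa Kyoto cells synchronized by double thymidine or nocodazole block, proteins quantified by TMT10plex mass spectrometry, three independent biological replicates.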
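Wherever solubility change mitosis vs G1/S (difference of NP-40 vs SDS log2 ratios) is given: synchronized HeLa Kyoto cells (double thymidine block for G1/S, nocodazole release for mitosis), protein amounts in NP-40 versus SDS lysates quantified by mass spectrometry, three biological replicates.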
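Wherever solubility in G1/S (NP-40 vs SDS abundance) is given: HeLa Kyoto cells arrested at G1/S by double thymidine block, proteins quantified by TMT10plex mass spectrometry in mild NP-40 versus SDS extracts, three biological replicates.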
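Wherever thermal stability score vs G1/S (z-score of summed log2 fold changes over temperatures) is given: synchronized HeLa Kyoto cells, proteins quantified by TMT10plex mass spectrometry, three biological replicates, mitosis taken 0.5 h after nocodazole release, G1/S directly after double thymidine block.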

Row | Sequence | thermal stability score (HeLa Kyoto [1]; [5]) | thermal stability score (HeLa Kyoto [1]; cell cycle stage: mitosis) | solubility change mitosis (log2) (HeLa Kyoto [2]) | melting temperature (HeLa Kyoto [3]; cell cycle stage: G1/S) | melting temperature (HeLa Kyoto [3]; cell cycle stage: mitosis) | solubility in G1/S (log2) (HeLa Kyoto [4])
1 | MAPAGCCCCCCFWGGAVAAAGAARRVLLLLLLGVLSAGLRPGALATEHYSPLSLLKQELQHRQQQEAPAGGGGCSPQSGDWGDQYSAECGESSFLNFHDSDCEPKGSSPCDSLLSLNTEKILSQAKSIAEQKRFPFATDNDSTNEELAIAYVLIGSGLYDEAIRHFSTMLQEEPDLVSAIYGRGIAYGKKGLHDIKNAELALFELSRVITLEPDRPEVFEQRAEILSPLGRINEAVNDLTKAIQLQPSARLYRHRGTLYFISEDYATAHEDFQQSLELNKNQPIAMLYKGLTFFHRGLLKEAIESFKEALKQKVDFIDAYKSLGQAYRELGNFEAATESFQKALLLNQNHVQTLQLRGMMLYHHGSLQEALKNFKRCLQLEPYNEVCQYMKGLSHVAMGQFYEGIKAQTKVMLNDPLPGQKASPEYLKVKYLREYSRYLHAHLDTPLTEYNIDVDLPGSFKDHWAKNLPFLIEDYEEQPGLQPHIKDVLHQNFESYKPEVQELICVADRLGSLMQYETPGFLPNKRIHRAMGLAALEVMQAVQRTWTNSKVRMNGKTRLMQWRDMFDIAVKWRRIADPDQPVLWLDQMPARSLSRGFNNHINLIRGQVINMRYLEYFEKILHFIKDRILVYHGANNPKGLLEVREALEKVHKVEDLLPIMKQFNTKTKDGFTVNTKVPSLKDQGKEYDGFTITITGDKVGNILFSVETQTTEERTQLYHAEIDALYKDLTAKGKVLILSSEFGEADAVCNLILSLVYYFYNLMPLSRGSSVIAYSVIVGALMASGKEVAGKIPKGKLVDFEAMTAPGSEAFSKVAKSWMNLKSISPSYKTLPSVSETFPTLRSMIEVLNTDSSPRCLKKL [TTC13] | 1.53 | 0.195 | -0.163 | 52.7 °C | 53.3 °C | 0.165
2 | MAPAMQPAEIQFAQRLASSEKGIRDRAVKKLRQYISVKTQRETGGFSQEELLKIWKGLFYCMWVQDEPLLQEELANTIAQLVHAVNNSAAQHLFIQTFWQTMNREWKGIDRLRLDKYYMLIRLVLRQSFEVLKRNGWEESRIKVFLDVLMKEVLCPESQSPNGVRFHFIDIYLDELSKVGGKELLADQNLKFIDPFCKIAAKTKDHTLVQTIARGVFEAIVDQSPFVPEETMEEQKTKVGDGDLSAEEIPENEVSLRRAVSKKKTALGKNHSRKDGLSDERGRDDCGTFEDTGPLLQFDYKAVADRLLEMTSRKNTPHFNRKRLSKLIKKFQDLSEGSSISQLSFAEDISADEDDQILSQGKHKKKGNKLLEKTNLEKEKGSRVFCVEEEDSESSLQKRRRKKKKKHHLQPENPGPGGAAPSLEQNRGREPEASGLKALKARVAEPGAEATSSTGEESGSEHPPAVPMHNKRKRPRKKSPRAHREMLESAVLPPEDMSQSGPSGSHPQGPRGSPTGGAQLLKRKRKLGVVPVNGSGLSTPAWPPLQQEGPPTGPAEGANSHTTLPQRRRLQKKKAGPGSLELCGLPSQKTASLKKRKKMRVMSNLVEHNGVLESEAGQPQALGSSGTCSSLKKQKLRAESDFVKFDTPFLPKPLFFRRAKSSTATHPPGPAVQLNKTPSSSKKVTFGLNRNMTAEFKKTDKSILVSPTGPSRVAFDPEQKPLHGVLKTPTSSPASSPLVAKKPLTTTPRRRPRAMDFF [RRP1B] | 1.95 | 1.97 | 1.63 | 47.9 °C | 49.5 °C | -2.01
3 | MAPDSDPFPEGPLLKLLPLDARDRGTQRCRLGPAALHALGARLGSAVKISLPDGGSCLCTAWPRRDGADGFVQLDPLCASPGAAVGASRSRRSLSLNRLLLVPCPPLRRVAVWPVLRERAGAPGARNTAAVLEAAQELLRNRPISLGHVVVAPPGAPGLVAALHIVGGTPSPDPAGLVTPRTRVSLGGEPPSEAQPQPEVPLGGLSEAADSLRELLRLPLRYPRALTALGLAVPRGVLLAGPPGVGKTQLVRAVAREAGAELLAVSAPALQGSRPGETEENVRRVFQRARELASRGPSLLFLDEMDALCPQRGSRAPESRVVAQVLTLLDGASGDREVVVVGATNRPDALDPALRRPGRFDREVVIGTPTLKQRKEILQVITSKMPISSHVDLGLLAEMTVGYVGADLTALCREAAMHALLHSEKNQDNPVIDEIDFLEAFKNIQPSSFRSVIGLMDIKPVDWEEIGGLEDVKLKLKQSIEWPLKFPWEFVRMGLTQPKGVLLYGPPGCAKTTLVRALATSCHCSFVSVSGADLFSPFVGDSEKVLSQIFRQARASTPAILFLDEIDSILGARSASKTGCDVQERVLSVLLNELDGVGLKTIERRGSKSSQQEFQEVFNRSVMIIAATNRPDVLDTALLRPGRLDKIIYIPPPDHKGRLSILKVCTKTMPIGPDVSLENLAAETCFFSGADLRNLCTEAALLALQENGLDATTVKQEHFLKSLKTVKPSLSCKDLALYENLFKKEGFSNVEGI [SPATA5L1] | -0.664 | -2.04 | 0.095 | 52.8 °C | 51.2 °C | -0.0544
4 | MAPGCKTELRSVTNGQSNQPSNEGDAIKVFVRIRPPAERSGSADGEQNLCLSVLSSTSLRLHSNPEPKTFTFDHVADVDTTQESVFATVAKSIVESCMSGYNGTIFAYGQTGSGKTFTMMGPSESDNFSHNLRGVIPRSFEYLFSLIDREKEKAGAGKSFLCKCSFIEIYNEQIYDLLDSASAGLYLREHIKKGVFVVGAVEQVVTSAAEAYQVLSGGWRNRRVASTSMNRESSRSHAVFTITIESMEKSNEIVNIRTSLLNLVDLAGSERQKDTHAEGMRLKEAGNINRSLSCLGQVITALVDVGNGKQRHVCYRDSKLTFLLRDSLGGNAKTAIIANVHPGSRCFGETLSTLNFAQRAKLIKNKAVVNEDTQGNVSQLQAEVKRLKEQLAELASGQTPPESFLTRDKKKTNYMEYFQEAMLFFKKSEQEKKSLIEKVTQLEDLTLKKEKFIQSNKMIVKFREDQIIRLEKLHKESRGGFLPEEQDRLLSELRNEIQTLREQIEHHPRVAKYAMENHSLREENRRLRLLEPVKRAQEMDAQTIAKLEKAFSEISGMEKSDKNQQGFSPKAQKEPCLFANTEKLKAQLLQIQTELNNSKQEYEEFKELTRKRQLELESELQSLQKANLNLENLLEATKACKRQEVSQLNKIHAETLKIITTPTKAYQLHSRPVPKLSPEMGSFGSLYTQNSSILDNDILNEPVPPEMNEQAFEAISEELRTVQEQMSALQAKLDEEEHKNLKLQQHVDKLEHHSTQMQELFSSERIDWTKQQEELLSQLNVLEKQLQETQTKNDFLKSEVHDLRVVLHSADKELSSVKLEYSSFKTNQEKEFNKLSERHMHVQLQLDNLRLENEKLLESKACLQDSYDNLQEIMKFEIDQLSRNLQNFKKENETLKSDLNNLMELLEAEKERNNKLSLQFEEDKENSSKEILKVLEAVRQEKQKETAKCEQQMAKVQKLEESLLATEKVISSLEKSRDSDKKVVADLMNQIQELRTSVCEKTETIDTLKQELKDINCKYNSALVDREESRVLIKKQEVDILDLKETLRLRILSEDIERDMLCEDLAHATEQLNMLTEASKKHSGLLQSAQEELTKKEALIQELQHKLNQKKEEVEQKKNEYNFKMRQLEHVMDSAAEDPQSPKTPPHFQTHLAKLLETQEQEIEDGRASKTSLEHLVTKLNEDREVKNAEILRMKEQLREMENLRLESQQLIEKNWLLQGQLDDIKRQKENSDQNHPDNQQLKNEQEESIKERLAKSKIVEEMLKMKADLEEVQSALYNKEMECLRMTDEVERTQTLESKAFQEKEQLRSKLEEMYEERERTSQEMEMLRKQVECLAEENGKLVGHQNLHQKIQYVVRLKKENVRLAEETEKLRAENVFLKEKKRSES [KIF15] | 0.584 | 1.61 | -0.0831 | 48.4 °C | 49.4 °C | 0.087
5 | MAPKFPDSVEELRAAGNESFRNGQYAEASALYGRALRVLQAQGSSDPEEESVLYSNRAACHLKDGNCRDCIKDCTSALALVPFSIKPLLRRASAYEALEKYPMAYVDYKTVLQIDDNVTSAVEGINRMTRALMDSLGPEWRLKLPSIPLVPVSAQKRWNSLPSENHKEMAKSKSKETTATKNRVPSAGDVEKARVLKEEGNELVKKGNHKKAIEKYSESLLCSNLESATYSNRALCYLVLKQYTEAVKDCTEALKLDGKNVKAFYRRAQAHKALKDYKSSFADISNLLQIEPRNGPAQKLRQEVKQNLH [TOMM34] | 0.535 | 1.04 | 0.108 | 47.4 °C | 48.8 °C | 0.584
6 | MAPNIYLVRQRISRLGQRMSGFQINLNPLKEPLGFIKVLEWIASIFAFATCGGFKGQTEIQVNCPPAVTENKTVTATFGYPFRLNEASFQPPPGVNICDVNWKDYVLIGDYSSSAQFYVTFAVFVFLYCIAALLLYVGYTSLYLDSRKLPMIDFVVTLVATFLWLVSTSAWAKALTDIKIATGHNIIDELPPCKKKAVLCYFGSVTSMGSLNVSVIFGFLNMILWGGNAWFVYKETSLHSPSNTSAPHSQGGIPPPTGI [SYPL1] | -3.54 | -3.06 | 0.0843 | 56.1 °C | 56.9 °C | -0.227
7 | MAPPSVFAEVPQAQPVLVFKLTADFREDPDPRKVNLGVGAYRTDDCHPWVLPVVKKVEQKIANDNSLNHEYLPILGLAEFRSCASRLALGDDSPALKEKRVGGVQSLGGTGALRIGADFLARWYNGTNNKNTPVYVSSPTWENHNAVFSAAGFKDIRSYRYWDAEKRGLDLQGFLNDLENAPEFSIVVLHACAHNPTGIDPTPEQWKQIASVMKHRFLFPFFDSAYQGFASGNLERDAWAIRYFVSEGFEFFCAQSFSKNFGLYNERVGNLTVVGKEPESILQVLSQMEKIVRITWSNPPAQGARIVASTLSNPELFEEWTGNVKTMADRILTMRSELRARLEALKTPGTWNHITDQIGMFSFTGLNPKQVEYLVNEKHIYLLPSGRINVSGLTTKNLDYVATSIHEAVTKIQ [GOT1] | -1.19 | -1.58 | -0.116 | 58.1 °C | 64.1 °C | 0.34
8 | MAPQNLSTFCLLLLYLIGAVIAGRDFYKILGVPRSASIKDIKKAYRKLALQLHPDRNPDDPQAQEKFQDLGAAYEVLSDSEKRKQYDTYGEEGLKDGHQSSHGDIFSHFFGDFGFMFGGTPRQQDRNIPRGSDIIVDLEVTLEEVYAGNFVEVVRNKPVARQAPGKRKCNCRQEMRTTQLGPGRFQMTQEVVCDECPNVKLVNEERTLEVEIEPGVRDGMEYPFIGEGEPHVDGEPGDLRFRIKVVKHPIFERRGDDLYTNVTISLVESLVGFEMDITHLDGHKVHISRDKITRPGAKLWKKGEGLPNFDNNNIKGSLIITFDVDFPKEQLTEEAREGIKQLLKQGSVQKVYNGLQGY [DNAJB11] | 3 | 0.842 | -0.0195 | 54.7 °C | 55 °C | 0.337
